Measurements from patent US20140154252A1 (EMERGENT PRODUCT DEVELOPMENT SEATTLE, published 2014).

T1: CD20 (human, UniProt P11836 1-297)
T1 construct: whole, on cells; 2H7 is called murine anti-human CD20; also called CD20 presented on WIL-2S cells; CD20 on Ramos, BJAB, SU-DHL-6 and DoHH2 B cells
T1 sequence (looked up): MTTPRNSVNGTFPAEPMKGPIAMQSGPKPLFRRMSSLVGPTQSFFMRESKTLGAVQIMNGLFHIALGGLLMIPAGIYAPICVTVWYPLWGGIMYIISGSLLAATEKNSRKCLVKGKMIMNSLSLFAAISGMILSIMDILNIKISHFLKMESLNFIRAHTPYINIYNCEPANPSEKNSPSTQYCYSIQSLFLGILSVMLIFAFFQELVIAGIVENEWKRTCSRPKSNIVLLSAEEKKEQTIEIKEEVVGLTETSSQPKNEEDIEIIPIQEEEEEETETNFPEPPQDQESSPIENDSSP


Molecular target: T1, CD20
Assay: flow cytometry on WIL2-S cells (CD20), protein A purified protein at 0.72 ug/ml, FITC goat anti-human IgG
Method: “L1-L6” refers to the 2H7-sss-hIgG-Lx-2e12 molecules where […] represents the L1-L6 linkers and the 2e12 V regions in the orientation of VL-VH. All the molecules were tested at a concentration of 0.72 μg/ml, and the binding detected using FITC conjugated goat anti-human IgG at 1:100.

binding result | Binder
binds | 2H7-sss-hIgG P238S/P331S-H4-2e12 VHVL (bispecific antibody, Assembled from modules as m11; also called 2H7-sss-hIgG-H4-2e12 HL) QIVLSQSPAILSASPGEKVTMTCRASSSVSYMHWYQQKPGSSPKPWIYAPSNLASGVPARFSGSGSGTSYSLTISRVEAEDAATYYCQQWSFNPPTFGAGTKLELKDGGGSGGGGSGGGGSSQAYLQQSGAESVRPGASVKMSCKASGYTFTSYNMHWVKQTPRQGLEWIGAIYPGNGDTSYNQKFKGKATLTVDKSSSTAYMQLSSLTSEDSAVYFCARVVYYSNSYWYFDVWGTGTTVTVSEPKSSDKTHTSPPSPAPELLGGSSVFLFPPKPKDTLMISRTPEVTCVVVDVSHEDPEVKFNWYVDGVEVHNAKTKPREEQYNSTYRVVSVLTVLHQDWLNGKEYKCKVSNKALPASIEKTISKAKGQPREPQVYTLPPSRDELTKNQVSLTCLVKGFYPSDIAVEWESNGQPENNYKTTPPVLDSDGSFFLYSKLTVDKSRWQQGNVFSCSVMHEALHNHYTQKSLSLSPGKGGGGSGGGGSGNSQVQLKESGPGLVAPSQSLSITCTVSGFSLTGYGVNWVRQPPGKGLEWLGMIWGDGSTDYNSALKSRLSITKDNSKSQVFLKMNSLQTDDTARYYCARDGYSNFHYYVMDYWGQGTSVTVSSGGGGSGGGGSGGGGSGGGGSDIVLTQSPASLAVSLGQRATISCRASESVEYYVTSLMQWYQQKPGQPPKLLISAASNVESGVPARFSGSGSGTDFSLNIHPVEEDDIAMYFCQQSRKVPWTFGGGTKLEIKR
binds | 2H7-sss-hIgG-L6-2e12 (H6 linker, 2e12 VL-VH) (bispecific antibody, Assembled from modules as m10; not shown: human IgG1 CH2-CH3) chain (part 1 of 2): QIVLSQSPAILSASPGEKVTMTCRASSSVSYMHWYQQKPGSSPKPWIYAPSNLASGVPARFSGSGSGTSYSLTISRVEAEDAATYYCQQWSFNPPTFGAGTKLELKDGGGSGGGGSGGGGSSQAYLQQSGAESVRPGASVKMSCKASGYTFTSYNMHWVKQTPRQGLEWIGAIYPGNGDTSYNQKFKGKATLTVDKSSSTAYMQLSSLTSEDSAVYFCARVVYYSNSYWYFDVWGTGTTVTVSEPKSSDKTHTSPPSP chain (part 2 of 2): GGGGSGGGGSGGGGSGNSDIVLTQSPASLAVSLGQRATISCRASESVEYYVTSLMQWYQQKPGQPPKLLISAASNVESGVPARFSGSGSGTDFSLNIHPVEEDDIAMYFCQQSRKVPWTFGGGTKLEIKRGGGGSGGGGSGGGGSQVQLKESGPGLVAPSQSLSITCTVSGFSLTGYGVNWVRQPPGKGLEWLGMIWGDGSTDYNSALKSRLSITKDNSKSQVFLKMNSLQTDDTARYYCARDGYSNFHYYVMDYWGQGTSVTVSS
binds | 2H7-sss-hIgG-L5-2e12 (H5 linker, 2e12 VL-VH) (bispecific antibody, Assembled from modules as m10; not shown: human IgG1 CH2-CH3) chain (part 1 of 2): QIVLSQSPAILSASPGEKVTMTCRASSSVSYMHWYQQKPGSSPKPWIYAPSNLASGVPARFSGSGSGTSYSLTISRVEAEDAATYYCQQWSFNPPTFGAGTKLELKDGGGSGGGGSGGGGSSQAYLQQSGAESVRPGASVKMSCKASGYTFTSYNMHWVKQTPRQGLEWIGAIYPGNGDTSYNQKFKGKATLTVDKSSSTAYMQLSSLTSEDSAVYFCARVVYYSNSYWYFDVWGTGTTVTVSEPKSSDKTHTSPPSP chain (part 2 of 2): NYGGGGSGGGGSGNSDIVLTQSPASLAVSLGQRATISCRASESVEYYVTSLMQWYQQKPGQPPKLLISAASNVESGVPARFSGSGSGTDFSLNIHPVEEDDIAMYFCQQSRKVPWTFGGGTKLEIKRGGGGSGGGGSGGGGSQVQLKESGPGLVAPSQSLSITCTVSGFSLTGYGVNWVRQPPGKGLEWLGMIWGDGSTDYNSALKSRLSITKDNSKSQVFLKMNSLQTDDTARYYCARDGYSNFHYYVMDYWGQGTSVTVSS
binds | 2H7-sss-hIgG P238S/P331S-H1-2e12 VHVL (bispecific antibody, Assembled from modules as m11; also called 2H7-sss-hIgG-H1-2e12 HL; TRU015-sss-IgG-H1-2e12 HL) QIVLSQSPAILSASPGEKVTMTCRASSSVSYMHWYQQKPGSSPKPWIYAPSNLASGVPARFSGSGSGTSYSLTISRVEAEDAATYYCQQWSFNPPTFGAGTKLELKDGGGSGGGGSGGGGSSQAYLQQSGAESVRPGASVKMSCKASGYTFTSYNMHWVKQTPRQGLEWIGAIYPGNGDTSYNQKFKGKATLTVDKSSSTAYMQLSSLTSEDSAVYFCARVVYYSNSYWYFDVWGTGTTVTVSEPKSSDKTHTSPPSPAPELLGGSSVFLFPPKPKDTLMISRTPEVTCVVVDVSHEDPEVKFNWYVDGVEVHNAKTKPREEQYNSTYRVVSVLTVLHQDWLNGKEYKCKVSNKALPASIEKTISKAKGQPREPQVYTLPPSRDELTKNQVSLTCLVKGFYPSDIAVEWESNGQPENNYKTTPPVLDSDGSFFLYSKLTVDKSRWQQGNVFSCSVMHEALHNHYTQKSLSLSPGKNSQVQLKESGPGLVAPSQSLSITCTVSGFSLTGYGVNWVRQPPGKGLEWLGMIWGDGSTDYNSALKSRLSITKDNSKSQVFLKMNSLQTDDTARYYCARDGYSNFHYYVMDYWGQGTSVTVSSGGGGSGGGGSGGGGSGGGGSDIVLTQSPASLAVSLGQRATISCRASESVEYYVTSLMQWYQQKPGQPPKLLISAASNVESGVPARFSGSGSGTDFSLNIHPVEEDDIAMYFCQQSRKVPWTFGGGTKLEIKR
binds | 2H7-sss-hIgG P238S/P331S-H2-2e12 VHVL (bispecific antibody, Assembled from modules as m11; also called 2H7-sss-hIgG-H2-2e12 HL) QIVLSQSPAILSASPGEKVTMTCRASSSVSYMHWYQQKPGSSPKPWIYAPSNLASGVPARFSGSGSGTSYSLTISRVEAEDAATYYCQQWSFNPPTFGAGTKLELKDGGGSGGGGSGGGGSSQAYLQQSGAESVRPGASVKMSCKASGYTFTSYNMHWVKQTPRQGLEWIGAIYPGNGDTSYNQKFKGKATLTVDKSSSTAYMQLSSLTSEDSAVYFCARVVYYSNSYWYFDVWGTGTTVTVSEPKSSDKTHTSPPSPAPELLGGSSVFLFPPKPKDTLMISRTPEVTCVVVDVSHEDPEVKFNWYVDGVEVHNAKTKPREEQYNSTYRVVSVLTVLHQDWLNGKEYKCKVSNKALPASIEKTISKAKGQPREPQVYTLPPSRDELTKNQVSLTCLVKGFYPSDIAVEWESNGQPENNYKTTPPVLDSDGSFFLYSKLTVDKSRWQQGNVFSCSVMHEALHNHYTQKSLSLSPGKGGGGSGNSQVQLKESGPGLVAPSQSLSITCTVSGFSLTGYGVNWVRQPPGKGLEWLGMIWGDGSTDYNSALKSRLSITKDNSKSQVFLKMNSLQTDDTARYYCARDGYSNFHYYVMDYWGQGTSVTVSSGGGGSGGGGSGGGGSGGGGSDIVLTQSPASLAVSLGQRATISCRASESVEYYVTSLMQWYQQKPGQPPKLLISAASNVESGVPARFSGSGSGTDFSLNIHPVEEDDIAMYFCQQSRKVPWTFGGGTKLEIKR
binds | 2H7-sss-hIgG P238S/P331S-H5-2e12 VHVL (bispecific antibody, Assembled from modules as m11; also called 2H7-sss-hIgG-H5-2e12 HL) QIVLSQSPAILSASPGEKVTMTCRASSSVSYMHWYQQKPGSSPKPWIYAPSNLASGVPARFSGSGSGTSYSLTISRVEAEDAATYYCQQWSFNPPTFGAGTKLELKDGGGSGGGGSGGGGSSQAYLQQSGAESVRPGASVKMSCKASGYTFTSYNMHWVKQTPRQGLEWIGAIYPGNGDTSYNQKFKGKATLTVDKSSSTAYMQLSSLTSEDSAVYFCARVVYYSNSYWYFDVWGTGTTVTVSEPKSSDKTHTSPPSPAPELLGGSSVFLFPPKPKDTLMISRTPEVTCVVVDVSHEDPEVKFNWYVDGVEVHNAKTKPREEQYNSTYRVVSVLTVLHQDWLNGKEYKCKVSNKALPASIEKTISKAKGQPREPQVYTLPPSRDELTKNQVSLTCLVKGFYPSDIAVEWESNGQPENNYKTTPPVLDSDGSFFLYSKLTVDKSRWQQGNVFSCSVMHEALHNHYTQKSLSLSPGKNYGGGGSGGGGSGNSQVQLKESGPGLVAPSQSLSITCTVSGFSLTGYGVNWVRQPPGKGLEWLGMIWGDGSTDYNSALKSRLSITKDNSKSQVFLKMNSLQTDDTARYYCARDGYSNFHYYVMDYWGQGTSVTVSSGGGGSGGGGSGGGGSGGGGSDIVLTQSPASLAVSLGQRATISCRASESVEYYVTSLMQWYQQKPGQPPKLLISAASNVESGVPARFSGSGSGTDFSLNIHPVEEDDIAMYFCQQSRKVPWTFGGGTKLEIKR
